Data taken from publication PMC4303335.

How the values were obtained:
[1] = target: H3–K27 substrate peptide of the sensor (no NLS); test: split reporter
[2] = target: H3–K9 substrate peptide of the sensor with C-terminal NLS (NhRluc8.6-Suv39H1–H3–K9-ChRLuc-NLS); test: split reporter

Row | reconstituted RLuc signal (RLU/μg protein) [1] | reconstituted RLuc signal [2] | reconstituted RLuc signal (RLU/μg protein) [2] | Substance
1 | 3.67e+07 | – | – | Pc2 chromodomain in the H3–K27 sensor (domain or fragment)
2 | – | 3.3e+06 | 5.26e+06 | Suv39H1 chromodomain in the H3–K9 sensor (NhRluc8.6-Suv39H1–H3–K9-ChRLuc) (domain or fragment)
3 | – | 1.75e+06 | – | Suv39H1 chromodomain mutant (W64A, W74A) in the H3–K9 sensor (domain or fragment)
